Results on 1 molecule are retold here after patent publication US20220204610A1, “PROTEIN BINDERS FOR IRHOM2” (NEW YORK SOCIETY FOR THE RELIEF OF THE RUPTURED AND …, priority 2019, published 2022).

The target of assay [1] is T1, human iRhom2 (Homo sapiens, UniProt Q6PJF5).
T1 construct: made in house; host or cells: chemical synthesis (Fmoc solid phase peptide synthesis), no expression host
T1 sequence (Q6PJF5 431-459): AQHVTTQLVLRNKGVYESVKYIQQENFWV
Nature of the assay: Peptide binding ELISA, target region determination (Example 9). Particulars: antibody 3 μg/ml; peptide coated at 10 μg/ml; normalized to IgM isotype control. The protocol: (§1) Next, peptide binding ELISA analyses were performed to verify whether the purified antibody 4H8-E3 of the invention recognizes any of the peptides that were administered to those animals the hybridoma clone 4H8 was derived from, thereby shedding light on the target region being recognized by the antibody 4H8-E3 of the invention.
(§2) In brief, on day 1, Nunc black MaxiSorp® 96-well plates (Thermo Fisher Scientific, USA) were coated overnight with 100 μl per well of single biotinylated peptides 1 to 11 as well as mixes of peptides 1 to 4 (Mix A), 5 to 7 (Mix B), and 8 to 11 (Mix C) at 10 μg/ml TBS each (thus, the final concentration of each peptide in mixes 1 to 4 and 8 to 11 was 2.5 μg/ml versus 3.3 μg/ml in mix 5 to 7) at 4° C. On day 2, peptide solutions were removed and MaxiSorp® plates were blocked with 300 μl per well of Pierce protein-free (TBS) blocking buffer (Thermo Fisher Scientific, USA) at room temperature for 1.5 hours. The blocking buffer was then removed and plates were washed 4 times with 350 μl per well of TBS-T (Carl Roth, Germany) on a 96-head plate washer (Tecan Group, Switzerland). Afterwards, 100 μl per well of TBS as blank control, mouse anti-biotin antibody (clone BN-34, Sigma-Aldrich, USA) at 0.3 μg/ml TBS as coating control, the purified antibody 4H8-E3 of the invention at 3 μg/ml TBS, and mouse IgM antibody (clone MOPC 104E, Sigma-Aldrich, USA) as isotype control to the purified antibody 4H8-E3 of the invention at 3 μg/ml TBS were added to wells pre-coated with single peptides 1 to 11 or respective mixes and incubated at room temperature for 4 hours. Subsequently, the plates were washed 4 times with 350 μl per well of TBS-T (Carl Roth, Germany) on a 96-head plate washer (Tecan Group, Switzerland) again and, protected from direct light, were incubated with 100 μl per well of AP-conjugated goat anti mouse IgG/IgG/IgM F(ab′)2 fragment (Sigma-Aldrich, USA) diluted 1:2,000 in TBS for 1 hour at room temperature. Following another round of 4 washing steps with 350 μl per well of TBS-T (Carl Roth, Germany) on a 96-head plate washer (Tecan Group, Switzerland) and careful removal of all buffer traces after the fourth cycle, 100 μl of AttoPhos substrate solution (Promega, USA) were added for incubation in the dark and at room temperature for 1 hour. Using an infinite M1000 PRO (Tecan Group, Switzerland) microplate reader, the fluorescence of each well was collected at an excitation wavelength of 435 nm and an emission wavelength of 555 nm.
(In general: In an ELISA, binding on a coated surface is turned into a signal by an enzyme label.)

Assay [2] deals with human iRhom2. Described as above. As to conditions: antibody 3 μg/ml, normalized to IgM isotype control. The protocol:
as §1, §2

In assay [3] the test system is LPS-induced release of endogenous TNFα from human THP-1 macrophage cells. The assay is described as follows: ELISA-based TNFα release assay with purified antibody (Example 11). It is filed as cell-based. Particulars: antibody at 10 μg/ml final; LPS 50 ng/ml, 2 hours. The protocol:
In the following study, ELISA-based TNFα release assays were performed to verify the inhibitory effects of the purified antibody 4H8-E3 of the invention on LPS-induced release of endogenous TNFα from human THP-1 macrophage cells.
In brief, on day 1, Nunc black MaxiSorp® 96-well plates (Thermo Fisher Scientific, USA) were coated overnight with 100 μl per well of mouse anti-human TNFα capture antibody (provided as part of the DuoSet ELISA kit) at 4 μg/ml TBS at 4° C. On day 2, the capture antibody solution was removed and MaxiSorp® plates were blocked with 300 μl per well of TBS, 1% BSA at room temperature for 3 hours. […] Using an infinite M1000 PRO (Tecan Group, Switzerland) microplate reader, the fluorescence of each well was collected at an excitation wavelength of 435 nm and an emission wavelength of 555 nm.

Where [4] appears, read: peptides coated individually or as mix.

B1: 4H8-E3: Mouse IgM monoclonal antibody against the human iRhom2 juxtamembrane domain adjacent to TMD1; HC VD SEQ ID NO 33, LC VD SEQ ID NO 40 (antibody, V domains shown)
VH: EVQLQQSGPELVKPGASVKISCKASGYTFTDYYMNWVKQSHGKSLEWIGDINPNNGGTSYNQKFKGKATLTVDKSSNTAYMEFRSLTSEDSAVYYCARRGYYGVDYWGQGTTLTVSS
VL: NIVMTQSPKSMSMSVGERVTLNCKASENVGTYVSWYQQKPEQSPKLLIFGASNRYTGVPDRFIGSGFATDFTLTISSVQAEDLADYHCGQSYSYPYTFGGGTKLEIK
modifications: IgM constant regions; antibody sequence
With B1, the “binding to single peptide 3 (amino acids 431 to 459 of human iRhom2 juxtamembrane domain)” value in assay [1] was “strong binding”. Moreover, in assay [2] (biotinylated peptides coated at 10 μg/ml), the “binding to Mix A consisting of peptides 1, 2, 3 and 4” value was “strong binding”. Moreover, in assay [2] (setting [4]), the “binding to peptides 5, 6 and 7 (large extracellular loop)” value is recorded as “no binding”; the “binding to peptides 8, 9, 10 and 11 (C-terminal tail of human iRhom2)” value was “no binding”. Also, the “inhibition of LPS-induced release of TNFα from THP-1 cells” value in assay [3] worked out at 62.6%.
